T1: cynomolgus monkey FcγRIIa3 extracellular domain, His-tagged (cynomolgus monkey)
T1 construct: also called cyno FcgRIIa3; cynoFcγRIIa3; not shown: His-tag added to the C-terminus
T1 chain: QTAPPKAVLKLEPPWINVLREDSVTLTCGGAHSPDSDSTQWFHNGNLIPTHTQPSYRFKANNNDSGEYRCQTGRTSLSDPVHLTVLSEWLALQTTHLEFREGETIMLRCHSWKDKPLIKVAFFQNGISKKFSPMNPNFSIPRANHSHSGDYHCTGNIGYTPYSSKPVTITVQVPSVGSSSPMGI

T2: cynomolgus monkey FcγRIIa2 extracellular domain, His-tagged (cynomolgus monkey)
T2 construct: also called cyno FcgRIIa2; cynoFcγRIIa2; not shown: His-tag added to the C-terminus
T2 chain: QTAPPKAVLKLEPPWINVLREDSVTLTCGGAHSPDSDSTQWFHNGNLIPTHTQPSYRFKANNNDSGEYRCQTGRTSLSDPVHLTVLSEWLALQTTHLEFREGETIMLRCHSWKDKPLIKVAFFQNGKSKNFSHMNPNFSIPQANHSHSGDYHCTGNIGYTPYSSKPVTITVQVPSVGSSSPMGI

T3: cynomolgus monkey FcγRIIb extracellular domain, His-tagged (cynomolgus monkey)
T3 construct: also called cyno FcgRIIb; cynoFcγRIIb; not shown: His-tag added to the C-terminus
T3 chain: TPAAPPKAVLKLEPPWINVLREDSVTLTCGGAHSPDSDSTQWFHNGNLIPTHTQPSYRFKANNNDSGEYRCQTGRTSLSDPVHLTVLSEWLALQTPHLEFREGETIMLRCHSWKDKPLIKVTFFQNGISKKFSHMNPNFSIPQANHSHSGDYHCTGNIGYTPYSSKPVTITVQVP

T4: cynomolgus monkey FcγRIIa1 extracellular domain, His-tagged (cynomolgus monkey)
T4 construct: also called cyno FcgRIIa1; cynoFcγRIIa1; not shown: His-tag added to the C-terminus
T4 chain: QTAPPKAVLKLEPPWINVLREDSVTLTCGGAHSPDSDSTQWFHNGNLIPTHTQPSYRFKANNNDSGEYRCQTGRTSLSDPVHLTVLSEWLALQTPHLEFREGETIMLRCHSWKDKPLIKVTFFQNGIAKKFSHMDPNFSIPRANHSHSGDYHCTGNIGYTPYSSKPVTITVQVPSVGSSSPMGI

T5: human FcγRIIb extracellular domain, His-tagged (human, UniProt P31994 43-217)
T5 construct: also called human FcgRIIb; not shown: His-tag added to the C-terminus
T5 sequence: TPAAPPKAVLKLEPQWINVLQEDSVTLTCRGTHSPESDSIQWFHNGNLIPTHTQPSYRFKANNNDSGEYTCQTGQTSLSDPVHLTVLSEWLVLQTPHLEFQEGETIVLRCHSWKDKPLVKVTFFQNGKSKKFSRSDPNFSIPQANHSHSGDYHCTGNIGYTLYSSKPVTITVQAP


Legend:
Experiment in all cases: SPR (BIACORE), antibody captured, FcγR as analyte, 25°C
[1] = target: T1, cynomolgus monkey FcγRIIa3 …
Procedure: (§1) The kinetic analysis of interactions between these antibodies and FcγR was carried out using BIACORE® T200 or BIACORE® 4000 (GE Healthcare). HBS-EP+ (GE Healthcare) was used as the running buffer, and the measurement temperature was set to 25° C. A chip produced by immobilizing Protein A. Protein A/G or mouse anti-human IgG kappa light chain (BD Biosciences) onto a Series S Sensor Chip CM4 or CM5 (GE Healthcare) by the amine-coupling method was used. […] After the measurement, the antibody captured on the chip was washed off by allowing reaction with 10 mM glycine-HCl, pH1.5 and 25 mM NaOH so that the chip was regenerated and used repeatedly. The sensorgrams obtained as measurement results were analyzed by the 1:1 Langmuir binding model using the BIACORE® Evaluation Software to calculate the binding rate constant ka (L/mol/s) and dissociation rate constant kd (l/s), and the dissociation constant KD (mol/L) was calculated from these values. […] Regarding such interactions, KD values were calculated using the following 1:1 binding model described in BIACORE® T100 Software Handbook BR1006-48 Edition AE.
(§2) The behavior of interacting molecules according to the 1:1 binding model on BIACORE® can be described by Equation 1: Req=C·R max/(KD+C)+RI, wherein, Req is a plot of steady-state binding levels to analyte concentration. C is concentration, RI is bulk refractive index contribution in the sample, and Rmax is analyte binding capacity of the surface. When this equation is rearranged, KD can be expressed as Equation 2: KD=C·Rmax/(Req−RI)−C. KD can be calculated by substituting the values of Rmax, RI, and C into Equation 1 or Equation 2. From the current measurement conditions, RI=0, C=2 μmol/L can be used.

[2] = target: T2, cynomolgus monkey FcγRIIa2 …
Procedure: as §1, §2

[3] = target: T3, cynomolgus monkey FcγRIIb extracellular …
Procedure: as §1, §2

[4] = target: T4, cynomolgus monkey FcγRIIa1 …
Procedure: as §1, §2

[5] = target: T6, human FcγRIIIaV extracellular domain, His-tagged (human, UniProt P08637 17-208)
T6 construct: also called human FcgRIIIaV; not shown: His-tag added to the C-terminus
T6 sequence (P08637 17-208 F176V): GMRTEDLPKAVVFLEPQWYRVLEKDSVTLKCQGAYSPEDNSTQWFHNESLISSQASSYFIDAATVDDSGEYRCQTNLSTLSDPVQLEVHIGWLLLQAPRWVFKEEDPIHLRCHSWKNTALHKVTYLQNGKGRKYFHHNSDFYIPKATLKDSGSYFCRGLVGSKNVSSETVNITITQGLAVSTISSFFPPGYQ
Procedure: as §1, §2

[6] = target: T5, human FcγRIIb extracellular domain, …
Procedure: as §1, §2

[7] = target: T7, cynomolgus monkey FcγRIIIaS extracellular domain, His-tagged (cynomolgus monkey, UniProt A3RFZ7 21-206 (rhesus entry))
T7 construct: also called cyno FcgRIIIaS; cynoFcγRIIIaS; not shown: His-tag added to the C-terminus
Procedure: as §1, §2

Kd [1]	Kd [2]	Kd [3]	Kd [4]	Kd [5]	Kd [6]	Kd [7]	Binder
4.8 µM	1.9 µM	590 nM	2.2 µM	54 µM	2.2 µM	2000 nM	M103205H795-MY265/M103202L889-SK1 (antibody, human IgG1, kappa, copies: 2 + 2) heavy: QVTLKESGPVLVKPTETLTLTCTVSGIDLSHDDISWVRQAPGKGLEWVGIISYAGSTYYASWAKGRLTISKDTSKNQVVLTMTNMDPVDTATYYCARGVPAYSHGGDLWGQGTLVTVSSASTKGPSVFPLAPSSKSTSGGTAALGCLVKDYFPEPVTVSWNSGALTSGVHTFPAVLQSSGLYSLSSVVTVPSSSLGTQTYICNVNHKPSNTKVDKKVEPKSCDKTHTCPPCPAPELLTGPSVFLFPPKPKDTLMISRTPEVTCVVVDVSDEDPEVKFNWYVDGVEVHNAKTKPREEQYNSTYRVVSVLTVLHQDWLNGKEYKCKVSNKALPKPIEKTISKAKGQPREPQVYTLPPSREEMTKNQVSLTCLVKGFYPSDIAVEWESNGQPENNYKTTPPVLDSDGSFFLYSKLTVDKSRWQQGNVFSCSVMHEALHNHYTQKSLSLSP light: DIVMTQSPATLSLSPGERATLSCTSSQSVYHANWLSWFQQKPGQPPKLLIYWASTLAYGVPSRFSGSGSGTDFTLTISSLQPEDAATYYCAGGYGGGRYAFGQGTKVEIKRTVAAPSVFIFPPSDEQLKSGTASVVCLLNNFYPREAKVQWKVDNALQSGNSQESVTEQDSKDSTYSLSSTLTLSKADYEKHKVYACEVTHQGLSSPVTKSFNRGEC
16 µM	5.5 µM	2800 nM	5.6 µM	64 µM	12 µM	3700 nM	M103205H795-MY264/M103202L889-SK1 (antibody, human IgG1, kappa, copies: 2 + 2) heavy: QVTLKESGPVLVKPTETLTLTCTVSGIDLSHDDISWVRQAPGKGLEWVGIISYAGSTYYASWAKGRLTISKDTSKNQVVLTMTNMDPVDTATYYCARGVPAYSHGGDLWGQGTLVTVSSASTKGPSVFPLAPSSKSTSGGTAALGCLVKDYFPEPVTVSWNSGALTSGVHTFPAVLQSSGLYSLSSVVTVPSSSLGTQTYICNVNHKPSNTKVDKKVEPKSCDKTHTCPPCPAPELLLGPSVFLFPPKPKDTLMISRTPEVTCVVVDVSDEDPEVKFNWYVDGVEVHNAKTKPREEQYNSTYRVVSVLTVLHQDWLNGKEYKCKVSNKALPKPIEKTISKAKGQPREPQVYTLPPSREEMTKNQVSLTCLVKGFYPSDIAVEWESNGQPENNYKTTPPVLDSDGSFFLYSKLTVDKSRWQQGNVFSCSVMHEALHNHYTQKSLSLSP light: DIVMTQSPATLSLSPGERATLSCTSSQSVYHANWLSWFQQKPGQPPKLLIYWASTLAYGVPSRFSGSGSGTDFTLTISSLQPEDAATYYCAGGYGGGRYAFGQGTKVEIKRTVAAPSVFIFPPSDEQLKSGTASVVCLLNNFYPREAKVQWKVDNALQSGNSQESVTEQDSKDSTYSLSSTLTLSKADYEKHKVYACEVTHQGLSSPVTKSFNRGEC
7.3 µM	20 µM	840 nM	24 µM	15 µM	5.7 µM	2700 nM	M103205H795-MY267/M103202L889-SK1 (antibody, human IgG1, kappa, copies: 2 + 2) heavy: QVTLKESGPVLVKPTETLTLTCTVSGIDLSHDDISWVRQAPGKGLEWVGIISYAGSTYYASWAKGRLTISKDTSKNQVVLTMTNMDPVDTATYYCARGVPAYSHGGDLWGQGTLVTVSSASTKGPSVFPLAPSSKSTSGGTAALGCLVKDYFPEPVTVSWNSGALTSGVHTFPAVLQSSGLYSLSSVVTVPSSSLGTQTYICNVNHKPSNTKVDKKVEPKSCDKTHTCPPCPAPELLIGPSVFLFPPKPKDTLMISRTPEVTCVVVDVSDEDPEVKFNWYVDGVEVHNAKTKPREEQYNSTYRVVSVLTVLHQDWLNGKEYKCKVSNKALPKPIEKTISKAKGQPREPQVYTLPPSREEMTKNQVSLTCLVKGFYPSDIAVEWESNGQPENNYKTTPPVLDSDGSFFLYSKLTVDKSRWQQGNVFSCSVMHEALHNHYTQKSLSLSP light: DIVMTQSPATLSLSPGERATLSCTSSQSVYHANWLSWFQQKPGQPPKLLIYWASTLAYGVPSRFSGSGSGTDFTLTISSLQPEDAATYYCAGGYGGGRYAFGQGTKVEIKRTVAAPSVFIFPPSDEQLKSGTASVVCLLNNFYPREAKVQWKVDNALQSGNSQESVTEQDSKDSTYSLSSTLTLSKADYEKHKVYACEVTHQGLSSPVTKSFNRGEC

Source: US20200317768A1 (published 2020)
